According to patent publication US10294487B2, “Methods and compositions involving ALS variants with native substrate preference” (E I DU PONT DE NEMOURS AND COMPANY, priority 2012, dated 2019):

Legend:
[1] = test system: G. max ALS1 protein; assay: Colorimetric ALS kinetic assay (Km, kcat) with pyruvate as substrate; assay type: biochemical, Glycine max
Experimental: A survey of known ALS (AcetoLactate Synthase) gene variants (Table 2) was performed, and a number of ALS variants were selected for kinetic evaluation based on breadth and strength of insensitivity to ALS-inhibitor herbicides as well as kinetic activity parameters including the ratio of substrate preferences. The selected ALS gene variants (Table 3) were generated by PCR mediated site-directed mutagenesis. Finnzymes PHUSION® DNA polymerase (Cat. No. F-530S) was used for the PCR reactions, following the instructions for recommended temperatures and cycles in the PHUSION® protocol. Some mutagenesis reactions were assisted by the use of IN-FUSION® enzyme (Clontech Cat. No. 639620) to circularize a linear plasmid with the mutation located within the 15 nucleotide overlapping ends, via recombination following the manufacturer's protocol for primer design and reaction conditions. The ALS genes, beginning with encoded amino acids SISK, (S48 to K51 in the G. max ALS1 protein (SEQ ID NO:1) corresponding to the mature protein N-terminus of the chloroplast localized enzyme), were cloned into the PMAL® E. coli expression vector (New England Biolabs) to express ALS as a fusion protein with a Maltose-Binding Protein (MBP) at the N-terminus with a thrombin site for cleavage and a His-6 tag for affinity purification. All in vitro protein characterization described in the examples was carried out with the isolated proteins after cleavage from the His-MBP fusion partner.
Km and Kcat determinations for recombinant ALS variants (with respect to pyruvate as the substrate) were performed using a colorimetric assay. ALS assays were carried out in 96-well microplates with 150 ul reaction containing 25 mM potassium phosphate, 0.2 mg/ml BSA, 15 mM MgCl2, 0.7 mM TPP, 28 uM FAD and 0-100 mM sodium pyruvate. Reactions were initiated by the addition of ALS enzyme to a final amount of 0.8 ug/well. Parameters for Km and Vmax were determined by fitting the velocity versus substrate concentration data to a rectangular hyperbola using GraphPad Prism software. Kcat values were determined from Vmax based on protein concentration in the reactions.

[2] = test system: G. max ALS1 protein; assay: Substrate specificity ratio (Rf), pyruvate versus 2-ketobutyrate, LC-MS of reduced products; assay type: biochemical, Glycine max; conditions: ratio of [pyruvate] to [2-ketobutyrate] giving equal rates of acetolactate and acetohydroxybutyrate formation; 25 mM pyruvate
From the text: The “substrate specificity ratio”, or “Rf”, characterizes the specificity of the ALS enzyme for AHB formation relative to AL formation (Gollop et al. (1989) Biochemistry 28:6310-6317). Rf is the ratio of [pyruvate] to [2-ketobutyrate] that results in equal rates of formation of acetolactate and acetohydroxybutyrate. Rf is a constant at all substrate concentrations. The substrate specificity ratio is ˜114 for the wild type Glycine max ALS1 enzyme (SEQ ID NO:1) compared to ˜3 for the highly resistant allele (HRA) double mutant variant (SEQ ID NO: 10) of the Glycine max ALS1. The soybean HRA sequence is disclosed, for example, in WO2007/024782, herein incorporated by reference.
Substrate preference was determined using the assay described in Example 3; however, the assay was conducted using a constant concentration of pyruvate (25 mM) and varying concentrations of the second substrate, 2-ketobutyrate. Each reaction involving a specific ratio of pyruvate to 2-ketobutyrate, after a set period of time, was quenched by addition of sodium borohydride (7-fold excess) to form the reduced adducts of the products of the two substrates namely; reduced acetolactate for the reaction with pyruvate and reduced aceto hydroxybutyrate for the 2-ketobutyrate reaction. The relative amounts of the two reduced products was determined by first, chromatographic separation using a 4.6×250 mm dC18 column (Atlantis) equilibrated with a 0.1% formic acid solution and subsequent elution using a methanol gradient at 0.7 ml/min, followed by detection using a Thermo FINNIGAN® LTQ® Mass Spectrometer (MS). The products of the two reactions were quantified by integration of the MS signals. The % of the amount of each of the reduced products was then plotted versus the concentration of 2-ketobutyrate. As the 2-ketobutyrate amount increased there was a consequent increase in reduced acetohydroxybutyrate (AHB) and decrease in reduced acetolactate (AL). […] The substrate specificity ratio was ˜114 for the wild type enzyme compared to 3 for the highly resistant allele (HRA) double mutant ALS variant (SEQ ID NO: 10).

| Molecule | Km [1] [mM] | kcat [1] [s⁻¹] | Substrate specificity ratio (Rf) [2] |
| --- | --- | --- | --- |
| GM-ALS_K237Q: Glycine Max ALS1 variant with a K→Q mutation at position 237 (protein, ALS1 variant K237Q) MAATASRTTRFSSSSSHPTFPKRITRSTLPLSHQTLTKPNHALKIKCSISKPPTAAPFTKEAPTTEPFVSRFASGEPRKGADILVEALERQGVTTVFAYPGGASMEIHQALTRSAAIRNVLPRHEQGGVFAAEGYARSSGLPGVCIATSGPGATNLVSGLADALMDSVPVVAITGQVPRRMIGTDAFQETPIVEVSRSITKHNYLILDVDDIPRVVAEAFFVATSGRPGPVLIDIPQDVQQQLAVPNWDEPVNLPGYLARLPRPPAEAQLEHIVRLIMEAQKPVLYVGGGSLNSSAELRRFVELTGIPVASTLMGLGTFPIGDEYSLQMLGMHGTVYANYAVDNSDLLLAFGVRFDDRVTGKLEAFASRAKIVHIDIDSAEIGKNKQAHVSVCADLKLALKGINMILEEKGVEGKFDLGGWREEINVQKHKFPLGYKTFQDAISPQHAIEVLDELTNGDAIVSTGVGQHQMWAAQFYKYKRPRQWLTSGGLGAMGFGLPAAIGAAVANPGAVVVDIDGDGSFIMNVQELATIRVENLPVKILLLNNQHLGMVVQWEDRFYKSNRAHTYLGDPSSESEIFPNMLKFADACGIPAARVTKKEELRAAIQRMLDTPGPYLLDVIVPHQEHVLPMIPSNGSFKDVITEGDGRTRY | 20 | 1.35 | 100.0 |
| GM-ALS_D357E: Glycine Max ALS1 variant with a D→E mutation at position 357 (protein, ALS1 variant D357E) MAATASRTTRFSSSSSHPTFPKRITRSTLPLSHQTLTKPNHALKIKCSISKPPTAAPFTKEAPTTEPFVSRFASGEPRKGADILVEALERQGVTTVFAYPGGASMEIHQALTRSAAIRNVLPRHEQGGVFAAEGYARSSGLPGVCIATSGPGATNLVSGLADALMDSVPVVAITGQVPRRMIGTDAFQETPIVEVSRSITKHNYLILDVDDIPRVVAEAFFVATSGRPGPVLIDIPKDVQQQLAVPNWDEPVNLPGYLARLPRPPAEAQLEHIVRLIMEAQKPVLYVGGGSLNSSAELRRFVELTGIPVASTLMGLGTFPIGDEYSLQMLGMHGTVYANYAVDNSDLLLAFGVRFDERVTGKLEAFASRAKIVHIDIDSAEIGKNKQAHVSVCADLKLALKGINMILEEKGVEGKFDLGGWREEINVQKHKFPLGYKTFQDAISPQHAIEVLDELTNGDAIVSTGVGQHQMWAAQFYKYKRPRQWLTSGGLGAMGFGLPAAIGAAVANPGAVVVDIDGDGSFIMNVQELATIRVENLPVKILLLNNQHLGMVVQWEDRFYKSNRAHTYLGDPSSESEIFPNMLKFADACGIPAARVTKKEELRAAIQRMLDTPGPYLLDVIVPHQEHVLPMIPSNGSFKDVITEGDGRTRY | 3 | 2.8 | 67.6 |
| GM-ALS_D357N: Glycine Max ALS1 variant with a D→N mutation at position 357 (protein, ALS1 variant D357N) MAATASRTTRFSSSSSHPTFPKRITRSTLPLSHQTLTKPNHALKIKCSISKPPTAAPFTKEAPTTEPFVSRFASGEPRKGADILVEALERQGVTTVFAYPGGASMEIHQALTRSAAIRNVLPRHEQGGVFAAEGYARSSGLPGVCIATSGPGATNLVSGLADALMDSVPVVAITGQVPRRMIGTDAFQETPIVEVSRSITKHNYLILDVDDIPRVVAEAFFVATSGRPGPVLIDIPKDVQQQLAVPNWDEPVNLPGYLARLPRPPAEAQLEHIVRLIMEAQKPVLYVGGGSLNSSAELRRFVELTGIPVASTLMGLGTFPIGDEYSLQMLGMHGTVYANYAVDNSDLLLAFGVRFDNRVTGKLEAFASRAKIVHIDIDSAEIGKNKQAHVSVCADLKLALKGINMILEEKGVEGKFDLGGWREEINVQKHKFPLGYKTFQDAISPQHAIEVLDELTNGDAIVSTGVGQHQMWAAQFYKYKRPRQWLTSGGLGAMGFGLPAAIGAAVANPGAVVVDIDGDGSFIMNVQELATIRVENLPVKILLLNNQHLGMVVQWEDRFYKSNRAHTYLGDPSSESEIFPNMLKFADACGIPAARVTKKEELRAAIQRMLDTPGPYLLDVIVPHQEHVLPMIPSNGSFKDVITEGDGRTRY | 6 | 2.5 | 72.0 |
| GM-ALS_W555L: Glycine Max ALS1 variant with a W→L mutation at position 555 (protein, ALS1 variant W555L) MAATASRTTRFSSSSSHPTFPKRITRSTLPLSHQTLTKPNHALKIKCSISKPPTAAPFTKEAPTTEPFVSRFASGEPRKGADILVEALERQGVTTVFAYPGGASMEIHQALTRSAAIRNVLPRHEQGGVFAAEGYARSSGLPGVCIATSGPGATNLVSGLADALMDSVPVVAITGQVPRRMIGTDAFQETPIVEVSRSITKHNYLILDVDDIPRVVAEAFFVATSGRPGPVLIDIPKDVQQQLAVPNWDEPVNLPGYLARLPRPPAEAQLEHIVRLIMEAQKPVLYVGGGSLNSSAELRRFVELTGIPVASTLMGLGTFPIGDEYSLQMLGMHGTVYANYAVDNSDLLLAFGVRFDDRVTGKLEAFASRAKIVHIDIDSAEIGKNKQAHVSVCADLKLALKGINMILEEKGVEGKFDLGGWREEINVQKHKFPLGYKTFQDAISPQHAIEVLDELTNGDAIVSTGVGQHQMWAAQFYKYKRPRQWLTSGGLGAMGFGLPAAIGAAVANPGAVVVDIDGDGSFIMNVQELATIRVENLPVKILLLNNQHLGMVVQLEDRFYKSNRAHTYLGDPSSESEIFPNMLKFADACGIPAARVTKKEELRAAIQRMLDTPGPYLLDVIVPHQEHVLPMIPSNGSFKDVITEGDGRTRY | 1.8 | 1.08 | 2.6 |
| GM-ALS_F559D: Glycine Max ALS1 variant with a F→D mutation at position 559 (protein, ALS1 variant F559D) MAATASRTTRFSSSSSHPTFPKRITRSTLPLSHQTLTKPNHALKIKCSISKPPTAAPFTKEAPTTEPFVSRFASGEPRKGADILVEALERQGVTTVFAYPGGASMEIHQALTRSAAIRNVLPRHEQGGVFAAEGYARSSGLPGVCIATSGPGATNLVSGLADALMDSVPVVAITGQVPRRMIGTDAFQETPIVEVSRSITKHNYLILDVDDIPRVVAEAFFVATSGRPGPVLIDIPKDVQQQLAVPNWDEPVNLPGYLARLPRPPAEAQLEHIVRLIMEAQKPVLYVGGGSLNSSAELRRFVELTGIPVASTLMGLGTFPIGDEYSLQMLGMHGTVYANYAVDNSDLLLAFGVRFDDRVTGKLEAFASRAKIVHIDIDSAEIGKNKQAHVSVCADLKLALKGINMILEEKGVEGKFDLGGWREEINVQKHKFPLGYKTFQDAISPQHAIEVLDELTNGDAIVSTGVGQHQMWAAQFYKYKRPRQWLTSGGLGAMGFGLPAAIGAAVANPGAVVVDIDGDGSFIMNVQELATIRVENLPVKILLLNNQHLGMVVQWEDRDYKSNRAHTYLGDPSSESEIFPNMLKFADACGIPAARVTKKEELRAAIQRMLDTPGPYLLDVIVPHQEHVLPMIPSNGSFKDVITEGDGRTRY | 20 | 0.417 | 96.0 |
